The target of test [1] is wild-type unmodified 147bp nucleosome (nucleosome core particle, human histones) (human).
Test [2] has as its target wild-type 185bp nucleosome (nucleosome with symmetric flanking DNA, human histones) (human).

B1: KDM5A^CAT (KDM5A 1–801, minimal catalytically active construct) (domain or fragment)
chain: MAGVGPGGYAAEFVPPPECPVFEPSWEEFTDPLSFIGRIRPLAEKTGICKIRPPKDWQPPFACEVKSFRFTPRVQRLNELEAMTRVRLDFLDQLAKFWELQGSTLKIPVVERKILDLYALSKIVASKGGFEMVTKEKKWSKVGSRLGYLPGKGTGSLLKSHYERILYPYELFQSGVSLMGVQMPNLDLKEKVEPEVLSTDTQTSPEPGTRMNILPKRTRRVKTQSESGDVSRNTELKKLQIFGAGPKVVGLAMGTKDKEDEVTRRRKVTNRSDAFNMQMRQRKGTLSVNFVDLYVCMFCGRGNNEDKLLLCDGCDDSYHTFCLIPPLPDVPKGDWRCPKCVAEECSKPREAFGFEQAVREYTLQSFGEMADNFKSDYFNMPVHMVPTELVEKEFWRLVSSIEEDVIVEYGADISSKDFGSGFPVKDGRRKILPEEEEYALSGWNLNNMPVLEQSVLAHINVDISGMKVPWLYVGMCFSSFCWHIEDHWSYSINYLHWGEPKTWYGVPSHAAEQLEEVMRELAPELFESQPDLLHQLVTIMNPNVLMEHGVPVYRTNQCAGEFVVTFPRAYHSGFNQGYNFAEAVNFCTADWLPIGRQCVNHYRRLRRHCVFSHEELIFKMAADPECLDVGLAAMVCKELTLMTEEETRLRESVVQMGVLMSEEEVFELVPDDERQCSACRTTCFLSALTCSCNPERLVCLYHPTDLCPCPMQKKCLRYRYPLEDLPSLLYGVKVRAQSYDTWVSRVTEALSANFNHKKDLIELRVMLEDAEDRKYPENDLFRKLRDAVKEAETCASVAQLL
As a reminder, the Kd is the constant that tells how readily two partners part at equilibrium. Consider B1, for which the Kd stood at 4 µM in test [1] and 3 µM in test [2].

The values are drawn from doi:10.1101/2025.05.01.651538 (2025).
